# Data as given in patent publication US20100129869.
# Columns and labels:
# Assay in all cases: cell_activity
# ZFN 12176 (engineered) = conditions: pair with ZFN 12172; CHO clone 1F1.6, Surveyor
# ZFN 12172 (engineered) = conditions: pair with ZFN 12176; CHO clone 1F1.6, Surveyor
# ZFN 9461 (engineered) = conditions: pair with ZFN 7844; CHO-S GS-/- B3, Surveyor
# ZFN 9477 (engineered) = conditions: pair with ZFN 9476; CHO-S GS-/- B3, Surveyor
# ZFN 9476 (engineered) = conditions: pair with ZFN 9477; CHO-S GS-/- B3, Surveyor
# ZFN 7844 (engineered) = conditions: pair with ZFN 9461; CHO-S GS-/- B3, Surveyor
# ZFN 8361 (engineered) = conditions: pair with ZFN 8365; CHO cells, Surveyor
# ZFN 9075 (engineered) = conditions: pair with ZFN 9372
# ZFN 9372 (engineered) = conditions: pair with ZFN 9075
# ZFN 8365 (engineered) = conditions: pair with ZFN 8361; CHO cells, Surveyor
# [1] = wt FokI, CHO-K1, Surveyor, 24% with obligate heterodimer FokI, 25% in CHO-S
# [2] = HEK293, CEL-I, also active in K562
substance,measurement,setting,value
AAGAAGGGTCATCAG (double strand) [CHO FUT8 exon 10 ZFN 12176 half-site],activity (% modified alleles),ZFN 12176 (engineered),7.5
AAGGAGGCAAAGACAAAG (double strand) [CHO FUT8 exon 10 ZFN 12172 half-site],activity (% modified alleles),ZFN 12172 (engineered),7.5
AGGGAAGGTCTCCGTT (double strand) [CHO DHFR exon 1 ZFN 9461 half-site],activity (% modified alleles),ZFN 9461 (engineered),15
AGTCCGGGGGGTGGTG (double strand) [CHO DHFR intron 1 ZFN 9477 half-site],activity (% modified alleles),ZFN 9477 (engineered),18
CATGGGTAGCCGCTGA (double strand) [CHO DHFR intron 1 ZFN 9476 half-site],activity (% modified alleles),ZFN 9476 (engineered),18
CCAATGCTCAGGTACT (double strand) [CHO DHFR exon 1 ZFN 7844 half-site],activity (% modified alleles),ZFN 7844 (engineered),15
CTGGGTTGATGGTACTGGAGAAGGACTG (double strand) [CHO GS exon 2 ZFN 8361 half-site],activity (% modified chromosomes),ZFN 8361 (engineered),7
GAATGGTGCAGGCTGC (double strand) [CHO GS exon 6 ZFN 9075 half-site],activity (% modified chromosomes),ZFN 9075 (engineered); [1],26
GTTCCCAGGAATGGGCTTGGGG (double strand) [CHO GS exon 6 ZFN 9372 half-site],activity (% modified chromosomes),ZFN 9372 (engineered); [1],26
TATACATGGCTTGGACTTTCTCACCCTG (double strand) [CHO GS exon 2 ZFN 8365 half-site],activity (% modified chromosomes),ZFN 8365 (engineered),7
human GS exon 6 target,activity,ZFN 9372 (engineered); [2],21 % NHEJ
same,activity,ZFN 9075 (engineered); [2],21 % NHEJ
